Results on one substance are retold here after article PMC3347556.

In general, pKa refers to the pH at which an ionisable group is half protonated. A high value points to a group that holds its proton tightly.

For the data set, the target named is Lys65 (UniProt position 65, ICSVSKQFTCA). Briefly: kinetics. To be noted: 25 °C, not stated (0.1 M Tris-HCl buffer), Free enzyme (Vmax/KM profile) with D-Ala-pNA as substrate.

The substance “D-aminopeptidase (DAP) (Ochrobactrum anthropi)” returned a pKa of 7.4.
